Measurements: patent US20170107273A1 (JAPAN AS REPRESENTED BY DIRECTOR GENERAL OF NATIONAL …, published 2017)
* marks the point of attachment. Biotin = O=C1N[C@H]2[C@H](CS[C@H]2CCCCC(=O)*)N1

T1: E2 protein of the TH strain (genotype 1b) on TH/JFH-1 HCVcc (Hepatitis C virus TH strain (genotype …))
T1 chain: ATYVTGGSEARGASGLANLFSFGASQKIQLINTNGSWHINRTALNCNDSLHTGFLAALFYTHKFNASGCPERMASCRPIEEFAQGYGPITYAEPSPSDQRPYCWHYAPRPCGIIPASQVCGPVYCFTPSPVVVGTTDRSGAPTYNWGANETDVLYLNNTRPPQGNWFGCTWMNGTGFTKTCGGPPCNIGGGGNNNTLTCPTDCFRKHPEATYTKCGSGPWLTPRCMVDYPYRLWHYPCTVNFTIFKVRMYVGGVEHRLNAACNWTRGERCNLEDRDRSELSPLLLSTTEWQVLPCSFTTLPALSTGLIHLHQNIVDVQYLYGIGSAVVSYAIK

T2: QLINTNGSWHIN (SEQ ID NO: 37), TH E2 protein-derived peptide (Hepatitis C virus TH strain (genotype …, SMILES …))
T2 construct: also called linear peptide of 12 amino acid residues
T2 peptide: Biotin-QLINTNGSWHING-NH2

T3: denatured TH E2-Fc protein (Hepatitis C virus TH strain (genotype …))
T3 construct: also called denatured E2 protein; not shown: Fc domain of human immunoglobulin (human IgG) from vector CDM-mIL7R-Ig
T3 chain: T1 chain

B1: e2d066 IgG (antibody, V domains shown)
VH: QVQLVQSGSDVKKPGSSVRVSCKASGGSFNSYAVNWVRQAPGQGLEWMGRIMPLVGLPEYAERFQERVTFTADKSTRTAYMDLTSLSSDDTAFYFCAVGVMKIFGEVPLNLDFWGQGTLVTVSS
VL: QAVLTQPSSVSGSPGQSITISCTGTSNDVGSYRYVSWFQQHPGKAPKLMIYDVNKRPSGVSSRFSGSKSGNTASLTISGLQAEDEANYYCSSYTRSSSLAFGGGTKLTVLS
notes: Human IgG1 made in CHO-K1 cells; also called biotinylated e2d066 IgG; ed2066 IgG
B2: e2d081 IgG (antibody, V domains shown)
VH: B1 VH
VL: QSVLTQPPSVSAAPGQKVTISCSGTSSNIGDNYVSWYQHLPGSAPKLLIYDNNKRPSGIPDRFSGSKSGTSATLGITGLQTGDEADFYCGTWDSSLSSVVFGGGTKLTVLG
notes: Human IgG1 made in CHO-K1 cells; also called eE2d081 IgG
B3: e2d073 IgG (antibody, V domains shown)
VH: QVQLVQSGAEVKKPGSSVKVSCKASGASFNSFAIDWVRQAPGQGLEWMGRIIPIADVSDYAQKFQGRVTITADKSTRTAYMELTTLRSDDTAVYYCATSPMLTFGGPNAFGAFDVWGQGTMVTVSS
VL: not shown
notes: Human IgG1 made in CHO-K1 cells

Key:
[1] = target: E2 protein of the H77 strain (genotype 1a) on H77/JFH-1 HCVcc (Hepatitis C virus H77 strain (genotype …, UniProt P27958 384-746)); assay: cell-based or functional assay
[2] = target: T1, E2 protein of the TH strain (genotype …); assay: cell-based or functional assay
[3] = target: E2 protein of the S310 strain (genotype 3a) on S310/JFH-1 HCVcc (Hepatitis C virus S310 strain (genotype …)); assay: cell-based or functional assay
[4] = target: E2 protein on J6/JFH-1 HCVcc-8W (J6/JFH-1 HCVcc after 8 rounds of subculture infection in the presence of the …); assay: cell-based or functional assay
[5] = target: T2, QLINTNGSWHIN (SEQ ID NO: 37), TH E2 …; assay: ELISA on biotinylated 12-mer peptides on streptavidin plates
[6] = target: T3, denatured TH E2-Fc protein; assay: ELISA, biotinylated antibody on immobilized denatured TH E2-Fc, avidin-HRP

Sequence of E2 protein of the H77 strain (genotype 1a) on H77/JFH-1 HCVcc (Hepatitis C virus H77 strain (P27958 384-746 limits assumed): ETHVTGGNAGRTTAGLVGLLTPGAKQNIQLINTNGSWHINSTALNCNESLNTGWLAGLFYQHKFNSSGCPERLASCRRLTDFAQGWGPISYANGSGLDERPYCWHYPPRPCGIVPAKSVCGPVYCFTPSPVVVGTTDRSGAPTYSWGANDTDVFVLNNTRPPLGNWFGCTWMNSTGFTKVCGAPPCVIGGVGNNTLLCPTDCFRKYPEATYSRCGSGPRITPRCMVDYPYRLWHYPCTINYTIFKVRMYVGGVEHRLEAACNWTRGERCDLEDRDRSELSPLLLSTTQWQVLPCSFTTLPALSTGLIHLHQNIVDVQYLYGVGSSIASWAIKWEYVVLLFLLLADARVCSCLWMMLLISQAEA

Binder	IC50 (µg/mL) of infection inhibiting activity against HCVcc (HCV core protein in Huh-7 cells) [1]	IC50 (µg/mL) of infection inhibiting activity against HCVcc (HCV core protein in Huh-7 cells) [2]	IC50 (µg/mL) of infection inhibiting activity against HCVcc (HCV core protein in Huh-7 cells) [3]	IC50 (µg/mL), 50% infection inhibiting concentration (infectious titer, focus count on Huh-7 cells) [4]	binding result [5]	binding result [6]
B1	3.3 µg/mL	0.11 µg/mL	1.03 µg/mL	< 0.01 µg/mL	no binding (tested: 1 µg/mL)	–
B2	0.66 µg/mL	0.05 µg/mL	0.5 µg/mL	0.67 µg/mL	no binding (tested: 1 µg/mL)	–
B3	> 30 µg/mL	0.25 µg/mL	10.4 µg/mL	59.4 µg/mL	no binding (tested: 1 µg/mL)	no binding
